Experimental findings from patent publication US20150203575A1 are described below.

Assay [1] addresses human NPDC1 expressed on cells (human) (UniProt Q9NQX5). Nature of the assay: flow cytometry, transfected 293 cells, 2nd Ab anti-His-PE; untransfected 293: 0.13. For orientation: A flow cytometer gives signals particle by particle.
Assay [2] deals with human COLEC12 expressed on cells (human) (UniProt Q5KU26). Described as above.
Assay [3] has as its target human CD99 expressed on 293T cells (human) (UniProt P14209). The description is as above.
The target of assay [4] is human NPDC1 expressed on cells (human) (UniProt Q9NQX5). Nature of the assay: flow cytometry, transfected 293 cells, 2nd Ab anti-His-PE; untransfected 293: 0.059.
Chain of human NPDC1 expressed on cells (human) (Q9NQX5 35-325 H113Q limits assumed): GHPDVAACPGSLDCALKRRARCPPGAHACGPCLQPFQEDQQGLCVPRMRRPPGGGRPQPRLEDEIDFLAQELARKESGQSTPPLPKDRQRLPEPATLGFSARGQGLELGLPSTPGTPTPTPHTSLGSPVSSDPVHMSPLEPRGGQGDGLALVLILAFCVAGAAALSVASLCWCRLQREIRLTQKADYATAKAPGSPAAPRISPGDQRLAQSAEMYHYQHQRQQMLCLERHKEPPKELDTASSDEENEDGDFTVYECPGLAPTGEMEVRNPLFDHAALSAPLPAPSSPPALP
Assay [5] concerns the target human COLEC12 expressed on cells (human) (UniProt Q5KU26). Described as above.
In assay [6] the target is human CD99 expressed on 293T cells (human) (UniProt P14209). The assay is described as above.
Chain of human CD99 expressed on 293T cells (human) (P14209 23-185): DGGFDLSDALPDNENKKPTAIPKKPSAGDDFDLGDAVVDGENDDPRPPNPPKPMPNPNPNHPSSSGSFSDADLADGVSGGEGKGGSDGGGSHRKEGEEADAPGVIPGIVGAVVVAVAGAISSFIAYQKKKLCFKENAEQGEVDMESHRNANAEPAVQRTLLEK
The target in assay [7] is human NPDC1 expressed on cells (human) (UniProt Q9NQX5). Put plainly: flow cytometry, transfected 293 cells, 2nd Ab anti-mouse IgG2a FITC; untransfected 293: 0.
Assay [8] concerns the target FceRII expressed on cells (human) (UniProt P06734). Nature of the assay: flow cytometry, transfected 293T cells, 2 µg/ml.
Assay [9] has the same target. Put plainly: flow cytometry, transfected 293T cells, 50 µg/ml.
Assay [10] addresses human NPDC1 expressed on cells (human) (UniProt Q9NQX5). Nature of the assay: flow cytometry, transfected 293 cells, 2nd Ab anti-goat-IgG-PE; untransfected 293: 0.098.
The target of assay [11] is human COLEC12 expressed on cells (human) (UniProt Q5KU26). Described as above.
Assay [12] concerns the target human CD99 expressed on 293T cells (human) (UniProt P14209). Described as above.

Chain of FceRII expressed on cells (human) (P06734 whole entry N269T): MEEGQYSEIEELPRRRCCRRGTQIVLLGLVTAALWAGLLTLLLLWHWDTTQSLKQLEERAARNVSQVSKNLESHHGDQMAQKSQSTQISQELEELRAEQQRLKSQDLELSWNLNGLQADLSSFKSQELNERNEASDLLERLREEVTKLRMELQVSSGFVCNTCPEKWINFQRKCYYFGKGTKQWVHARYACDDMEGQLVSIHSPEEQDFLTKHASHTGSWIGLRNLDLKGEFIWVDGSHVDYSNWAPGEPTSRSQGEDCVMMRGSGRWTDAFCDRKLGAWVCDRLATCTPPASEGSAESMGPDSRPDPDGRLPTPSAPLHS
Chain of human COLEC12 expressed on cells (human) (Q5KU26 whole entry S522P/G606S): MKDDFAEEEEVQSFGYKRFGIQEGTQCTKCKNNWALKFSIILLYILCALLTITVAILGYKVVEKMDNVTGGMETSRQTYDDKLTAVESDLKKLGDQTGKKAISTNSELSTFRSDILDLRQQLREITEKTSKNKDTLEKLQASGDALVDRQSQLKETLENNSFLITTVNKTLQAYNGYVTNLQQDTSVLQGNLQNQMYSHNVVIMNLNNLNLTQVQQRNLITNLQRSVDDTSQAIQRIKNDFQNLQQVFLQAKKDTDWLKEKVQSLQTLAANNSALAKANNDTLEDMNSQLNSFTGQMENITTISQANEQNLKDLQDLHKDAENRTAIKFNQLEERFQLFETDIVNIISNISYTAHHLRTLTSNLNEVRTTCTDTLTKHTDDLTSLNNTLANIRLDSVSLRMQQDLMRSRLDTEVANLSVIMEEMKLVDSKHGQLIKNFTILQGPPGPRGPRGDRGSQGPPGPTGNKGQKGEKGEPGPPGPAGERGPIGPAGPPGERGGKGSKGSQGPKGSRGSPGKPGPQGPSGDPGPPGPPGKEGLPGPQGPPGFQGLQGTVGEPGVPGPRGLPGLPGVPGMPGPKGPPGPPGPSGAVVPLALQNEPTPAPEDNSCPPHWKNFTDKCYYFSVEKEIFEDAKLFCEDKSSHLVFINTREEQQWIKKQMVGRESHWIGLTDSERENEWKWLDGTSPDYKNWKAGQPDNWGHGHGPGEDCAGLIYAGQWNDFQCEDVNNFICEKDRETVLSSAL
Chain of mPILRβ-his (R&D) (receptor) (Q2YFS2 29-195): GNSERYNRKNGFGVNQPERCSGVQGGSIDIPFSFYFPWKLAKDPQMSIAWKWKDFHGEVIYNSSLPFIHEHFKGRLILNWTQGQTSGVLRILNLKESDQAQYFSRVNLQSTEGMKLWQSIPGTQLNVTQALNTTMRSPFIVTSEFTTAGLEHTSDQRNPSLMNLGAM
Chain of mPILRα-his (R&D) (receptor) (Q2YFS3 32-198): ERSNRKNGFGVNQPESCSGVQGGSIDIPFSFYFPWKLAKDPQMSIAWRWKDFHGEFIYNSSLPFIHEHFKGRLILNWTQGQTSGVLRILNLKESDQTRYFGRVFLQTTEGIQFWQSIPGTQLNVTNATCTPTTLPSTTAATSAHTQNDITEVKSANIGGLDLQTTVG

Consider mPILRα-his (R&D) (receptor), for which the values for the % cells in lower right quadrant in assay [1], in [2] and in [3] were 23.6%, 12.3% and 0.24%, respectively.

In the case of mPILRβ-his (R&D) (receptor), the % cells in lower right quadrant stood at 0.22% in [4], 0.062% in [5] and 0.043% in assay [6].

mIgG2a (Control) (antibody): the % cells in lower right quadrant in assay [7] turned out to be 0.018%.

In [8], “hPILRαR126A-Fc (from UniProt Q9UKJ1 20-197) (Fc fusion)” yielded a % cells in lower right quadrant of 0.028%.

As for “mPILRα-Fc (from UniProt Q2YFS3 32-198) (Fc fusion)”, the % cells in lower right quadrant in assay [8] amounted to 30.3%; in [9], 47.8%.

In turn, “mPILRαR133A-Fc (from UniProt Q2YFS3 32-198) (Fc fusion)” had a % cells in lower right quadrant in [9] of 0.014%.

For “hPILRα-Fc (from UniProt Q9UKJ1 20-197) (Fc fusion)”, the results for the % cells in lower right quadrant in assay [8] and in assay [9] were 15.5% and 58.1%, respectively.

Take Goat IgG (Control) (antibody): the % cells in lower right quadrant came to 1.28% in assay [10], 2.19% in assay [11] and 0.19% in [12].
